The source of these data is PMC314469, “Protein Interaction Networks by Proteome Peptide Scanning” (PLoS Biology, 2004).

Experiment in all cases: SPOT array
For assay [1], the target named is T1, Boi1 SH3 (BOI1_YEAST), P38041.
T1 chain: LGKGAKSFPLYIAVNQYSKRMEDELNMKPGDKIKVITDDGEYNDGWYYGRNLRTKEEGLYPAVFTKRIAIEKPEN

Assay [2] concerns the target T2, Boi2 SH3 (BOI2_YEAST), P39969.
T2 chain: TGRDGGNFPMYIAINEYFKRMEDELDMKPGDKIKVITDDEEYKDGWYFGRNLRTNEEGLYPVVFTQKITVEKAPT

The target in assay [3] is T3, Myo5 SH3 (MYO5_YEAST), Q04439.
T3 chain: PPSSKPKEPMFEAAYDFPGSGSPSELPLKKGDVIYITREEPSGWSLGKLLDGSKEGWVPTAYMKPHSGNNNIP

For assay [4], the target named is T4, Rvs167 SH3 (RV167_YEAST), P39743.
T4 chain: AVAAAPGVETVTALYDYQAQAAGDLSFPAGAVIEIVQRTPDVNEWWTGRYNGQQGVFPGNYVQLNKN

For assay [5], the target named is Sho1 SH3 (SHO1_YEAST), P40073.
Sequence of Sho1 SH3 (SHO1_YEAST), P40073 (P40073 295-366): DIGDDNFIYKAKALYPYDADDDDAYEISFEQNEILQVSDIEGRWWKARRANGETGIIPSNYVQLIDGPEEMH
Assay [6] deals with T5, Yfr024 SH3 (LSB3_YEAST), P43603.
T5 chain: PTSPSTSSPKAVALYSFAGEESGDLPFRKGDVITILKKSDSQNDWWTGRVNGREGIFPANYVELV

Assay [7] has as its target T6, Yhr016c SH3 (YSC84_YEAST), P32793.
T6 chain: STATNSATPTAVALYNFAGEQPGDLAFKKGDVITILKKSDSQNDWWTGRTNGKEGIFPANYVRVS

B1: YKL097C 62-75 (peptide)
chain: LPLPKLRPPRPTFA
B1: the normalised SPOT signal, Boehringer light units (BLU); mean over the file's lines of this peptide turned out to be 3930 in assay [1]; 3.7 in assay [2]; 77900 in assay [3]; 87.3 in assay [4]; 76.3 in assay [5]; 16600 in assay [6]. The molecule further gave a normalised SPOT signal, Boehringer light units (BLU); mean over the file's lines of this peptide in assay [7] of 4270.

B2: YOL152W 75-88 (peptide)
chain: LPEKKNSPTTPSVF
As for B2, the normalised SPOT signal, Boehringer light units (BLU); mean over the file's lines of this peptide in assay [1] stood at 88.9; in assay [2], 0; in assay [3] it was 102; in assay [4], 67.3; in assay [5], 54.9; in assay [6], 11.4. In assay [7], this molecule came in with a normalised SPOT signal, Boehringer light units (BLU); mean over the file's lines of this peptide of 22.9.

B3: YKL216W 87-100 (peptide)
chain: LNRQKNYPDAPAIF
On to B3, for which the normalised SPOT signal, Boehringer light units (BLU); mean over the file's lines of this peptide in assay [1] was found to be 71.2; in assay [2], 7.9; in assay [3], 86.4; in assay [4] it was 63.3; in assay [5], 56.9; in assay [6], 38.6. In assay [7], the normalised SPOT signal, Boehringer light units (BLU); mean over the file's lines of this peptide was 19.7.

B4: YOL006C 316-329 (peptide)
chain: LNLSKDAPVPPAPE
For B4, the normalised SPOT signal, Boehringer light units (BLU); mean over the file's lines of this peptide in assay [1] came out at 103; in assay [2] it was 19.2; in assay [3], 161; in assay [4], 128; in assay [5], 54.1; in assay [6] it was 0. The molecule further returned a normalised SPOT signal, Boehringer light units (BLU); mean over the file's lines of this peptide in assay [7] of 81.

B5: YJR005W 603-616 (peptide)
chain: LNKTKLLPQSPILN
B5: the normalised SPOT signal, Boehringer light units (BLU); mean over the file's lines of this peptide in assay [1] is 93.4; in assay [2], 8.8; in assay [3] it was 118; in assay [4], 35.5; in assay [5] it was 1920; in assay [6], 71.9. In assay [7], this molecule registered a normalised SPOT signal, Boehringer light units (BLU); mean over the file's lines of this peptide of 14.5.

B6: YBL101C 22-35 (peptide)
chain: LNQSKGQPFQPSPT
B6: the normalised SPOT signal, Boehringer light units (BLU); mean over the file's lines of this peptide in assay [1] came out at 139; in assay [2], 0; in assay [3], 255; in assay [4], 111; in assay [5], 24.8; in assay [6], 16. Further, in assay [7], the normalised SPOT signal, Boehringer light units (BLU); mean over the file's lines of this peptide was found to be 26.4.

B7: YFL013C 529-542 (peptide)
chain: LNRKKVTPQLPKVT
For the molecule B7, the normalised SPOT signal, Boehringer light units (BLU); mean over the file's lines of this peptide in assay [1] is 384; in assay [2], 27.9; in assay [3], 500; in assay [4], 75.9; in assay [5], 263; in assay [6] it was 142. The normalised SPOT signal, Boehringer light units (BLU); mean over the file's lines of this peptide in assay [7] turned out to be 22.7.

B8: YLR072W 61-74 (peptide)
chain: LNGLKSSPADPHLS
For B8, the normalised SPOT signal, Boehringer light units (BLU); mean over the file's lines of this peptide in assay [1] was 63.9; in assay [2] it was 39.1; in assay [3] it was 153; in assay [4], 60.3; in assay [5], 20.5; in assay [6], 2.4. The normalised SPOT signal, Boehringer light units (BLU); mean over the file's lines of this peptide in assay [7] stood at 23.9.

B9: YDR402C 27-40 (peptide)
chain: LNFPKNIPTIPFYV
Take B9: the normalised SPOT signal, Boehringer light units (BLU); mean over the file's lines of this peptide in assay [1] is 92.6; in assay [2], -0; in assay [3], 256; in assay [4], 53; in assay [5], 131; in assay [6], 26.9. Further, in assay [7], the normalised SPOT signal, Boehringer light units (BLU); mean over the file's lines of this peptide was found to be 22.8.

B10: YCL051W 94-107 (peptide)
chain: LPEPRFYPLSPKNN
With B10, the normalised SPOT signal, Boehringer light units (BLU); mean over the file's lines of this peptide in assay [1] was 95.3; in assay [2] it was 47; in assay [3], 289; in assay [4], 49.4; in assay [5] it was 33; in assay [6], 202. For the same molecule, in assay [7], the normalised SPOT signal, Boehringer light units (BLU); mean over the file's lines of this peptide stood at 30.9.

B11: YHR099W 3263-3276 (peptide)
chain: LPFPRKNPKLPENT
Turning to B11, the normalised SPOT signal, Boehringer light units (BLU); mean over the file's lines of this peptide in assay [1] amounted to 289; in assay [2] it was 38.3; in assay [3], 147; in assay [4] it was 40.2; in assay [5] it was 149; in assay [6], 322. The same molecule had a normalised SPOT signal, Boehringer light units (BLU); mean over the file's lines of this peptide in assay [7] of 44.2.

B12: YJL128C 180-193 (peptide)
chain: LNPNRRAPRRPLST
As to B12, the normalised SPOT signal, Boehringer light units (BLU); mean over the file's lines of this peptide in assay [1] was 4910; in assay [2], 506; in assay [3] it was 8000; in assay [4] it was 1240; in assay [5], 585; in assay [6], 3720. This molecule registered a normalised SPOT signal, Boehringer light units (BLU); mean over the file's lines of this peptide in assay [7] of 173.

B13: YOR231W 77-90 (peptide)
chain: LNTMKKRPAPPSLP
B13: the normalised SPOT signal, Boehringer light units (BLU); mean over the file's lines of this peptide in assay [1] amounted to 97.3; in assay [2] it was 72.5; in assay [3], 22300; in assay [4], 271; in assay [5], 374; in assay [6] it was 1440. Also, the normalised SPOT signal, Boehringer light units (BLU); mean over the file's lines of this peptide in assay [7] was found to be 202.

B14: YBR218C 505-518 (peptide)
chain: LPKLKSNPSVPHLH
B14: the normalised SPOT signal, Boehringer light units (BLU); mean over the file's lines of this peptide in assay [1] was found to be 843; in assay [2], 20.5; in assay [3], 193; in assay [4], 52.3; in assay [5] it was 114; in assay [6], 71.1. Further, the normalised SPOT signal, Boehringer light units (BLU); mean over the file's lines of this peptide in assay [7] stood at 5.2.
